{
  "source": "patent EP4631959A2",
  "about": "“NOVEL MINIGASTRIN-DERIVED CHOLECYSTOKININ 2 RECEPTOR BINDING MOLECULES FOR IMAGING AND TARGETED RADIOTHERAPY” (priority 2022, dated 2024)",
  "key": {"CCK-2R [1]": {"test_system": "CCK-2R", "assay": "Competition studies in AR4-2J tumor-bearing CB17-SCID mice", "type": "in vivo", "conditions": "co-administration of excess unlabeled competitor (40 nmol), 24 h p.i.", "experimental": "For competition studies, the radiolabeled compound (approx. 1-5 MBq, 100 pmol) was co-injected with [^natLu]Lu-DOTA-MGS5 (40 nmol) into the tail vein of AR4-2J tumor-bearing CB17-SCID mice and sacrificed at 1 to 24 h post injection (n = 2). Selected organs were removed, weighted and measured in a γ-counter."}, "[2]": {"target": "T1, Human serum albumin (HSA) (Homo sapiens, UniProt P02768)", "T1 construct": "purchased Daicel, Tokyo, Japan H13H-2433", "T1 sequence (P02768 25-609)": "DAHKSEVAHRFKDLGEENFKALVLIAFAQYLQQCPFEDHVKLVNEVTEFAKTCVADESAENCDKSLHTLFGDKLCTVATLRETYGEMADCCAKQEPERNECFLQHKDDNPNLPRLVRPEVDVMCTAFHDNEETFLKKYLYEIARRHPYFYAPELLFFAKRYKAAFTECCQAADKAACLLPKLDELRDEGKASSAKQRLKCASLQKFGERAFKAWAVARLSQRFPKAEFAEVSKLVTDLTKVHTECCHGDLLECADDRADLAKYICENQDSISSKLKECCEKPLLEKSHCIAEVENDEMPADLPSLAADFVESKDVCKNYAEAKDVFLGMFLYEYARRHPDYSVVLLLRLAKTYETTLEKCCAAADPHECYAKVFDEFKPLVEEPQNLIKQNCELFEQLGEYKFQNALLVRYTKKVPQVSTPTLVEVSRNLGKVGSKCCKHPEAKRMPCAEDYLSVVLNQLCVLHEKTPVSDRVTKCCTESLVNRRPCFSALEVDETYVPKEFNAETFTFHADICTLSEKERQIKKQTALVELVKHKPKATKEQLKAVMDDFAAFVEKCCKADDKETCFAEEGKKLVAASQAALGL", "assay": "Determination of HSA binding on a Chiralpak HSA column", "type": "in vitro ADME", "conditions": "Tab. 8; metal not stated (Fig. 18: ^natLu)", "outline": "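Retention on an HSA column with a 50 mM NH4OAc (pH 6.9)/isopropanol gradient at 0.5 mL/min, rt; samples run at 0.5 mg/mL in A/B (1/1). Binding derived by non-linear regression against nine reference compounds spanning 13 to 99% HSA binding.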"}, "[3]": {"assay": "n-Octanol-PBS distribution coefficient (logD7.4)", "type": "physicochemical", "conditions": "pH = 7.4, ^177Lu-labeled", "experimental": "Approximately 1 MBq of the labeled tracer was dissolved in 1 mL of a 1/1 mixture (v/v) of phosphate buffered saline (PBS, pH = 7.4) and n-octanol in an Eppendorf tube (1.5 mL). After vigorous mixing of the suspension for 3 min at rt, the vial was centrifuged at 9,000 rpm for 5 min (Biofuge 15, Heraeus Sepatech, Osterode, Germany) and 200 µL aliquots of both layers were measured in a γ-counter. The experiment was repeated at least five times."}, "CCK-2R [4]": {"target": "T2, CCK-2R (Rattus norvegicus, UniProt P30553)", "T2 construct": "The CCK-2R expressing rat pancreatic tumor cells AR4-2J; host or cells: AR4-2J rat pancreatic tumor cells", "T2 sequence (P30553 1-452)": "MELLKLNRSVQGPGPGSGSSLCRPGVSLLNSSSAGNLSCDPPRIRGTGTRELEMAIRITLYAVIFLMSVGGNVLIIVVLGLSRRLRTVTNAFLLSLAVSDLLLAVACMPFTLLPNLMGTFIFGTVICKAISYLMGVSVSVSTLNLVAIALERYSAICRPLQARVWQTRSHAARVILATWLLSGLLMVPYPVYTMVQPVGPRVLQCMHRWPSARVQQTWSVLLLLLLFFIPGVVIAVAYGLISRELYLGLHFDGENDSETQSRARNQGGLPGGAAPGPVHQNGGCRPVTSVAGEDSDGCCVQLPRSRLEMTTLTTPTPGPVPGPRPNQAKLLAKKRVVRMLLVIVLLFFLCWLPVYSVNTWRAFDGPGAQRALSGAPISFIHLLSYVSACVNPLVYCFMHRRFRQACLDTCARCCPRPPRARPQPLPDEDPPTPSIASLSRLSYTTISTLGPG", "assay": "Determination of IC50: CCK-2R affinity on AR4-2J cells, competition with [^177Lu]Lu-DOTA-PP-F11N", "type": "binding", "conditions": "AR4-2J cells", "outline": "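Competitive displacement of 0.3 pmol/well [177Lu]Lu-DOTA-PP-F11N by compounds (10^-10 to 10^-4 M) on AR4-2J cells in BSA-supplemented medium, 3 h at 37 °C. Free label was collected from medium plus PBS rinse, and cell-bound label was recovered with 1 M NaOH, both measured by γ-counter. Each IC50 was determined twice, in triplicate.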"}, "[5]": {"assay": "In vivo stability studies in murine serum and urine", "design": "species or system CB17-SCID mice", "conditions": "30 min p.i.", "experimental": "Stability studies were performed via injection of the ^177Lu-labeled peptide (approx. 35 MBq, 1 nmol) into the tail vein (n = 3) of anesthetized (2% isoflurane) CB17-SCID mice. At 30 min p.i. the mice were euthanized and a urine as well as a blood sample were taken. The urine sample was analyzed without further treatment. The blood sample was centrifuged at 5,000 rpm for 2 min. Afterwards, the serum was collected and ice-cold MeCN (1:1, v/v) as well as EtOH (1:2, v/v) were added. The sample was centrifuged at 5,000 rpm for 2 min once more and the supernatant was analyzed via RP-HPLC (10→30% in 5 min, 30→60% in 15 min, MeCN/H2O + 0.1% TFA)."}},
  "note": "Read-outs that look alike come from different tables or passages of the source. Starred links: 1 amine or outer side, 2 acyl side, 3 side chain; linkers in the order of their positions; H or OH if unused. Non-standard residues stand in square brackets, D forms with d. Residues, ends and D or L forms follow the SMILES beside them. *: point of attachment. Benzoyl(4-SiFtBu2) = CC(C)(C)[Si](F)(c1ccc(C(=O)*)cc1)C(C)(C)C; DOTA = O=C(O)CN1CCN(CC(=O)O)CCN(CC(=O)*)CCN(CC(=O)O)CC1; d(γGlu) = O=C(O)[C@@H](CCC(=O)[*:2])N[*:1]; 1Nal = N[C@@H](Cc1cccc2ccccc12)C(=O)O; Hyp = O=C(O)[C@@H]1C[C@@H](O)CN1; NMeNle = CCCC[C@H](NC)C(=O)O; PEG4 = NCCOCCOCCOCCOCCC(=O)O; dDap = NC[C@@H](N)C(=O)O",
  "data": [
    {"smiles": "CCCC[C@@H](C(=O)N[C@@H](CC(=O)O)C(=O)N[C@@H](Cc1cccc2ccccc12)C(N)=O)N(C)C(=O)[C@H](Cc1c[nH]c2ccccc12)NC(=O)CCOCCOCCOCCOCCNC(=O)CC[C@@H](NC(=O)[C@@H]1C[C@@H](O)CN1C(=O)[C@@H]1C[C@@H](O)CN1C(=O)[C@@H]1C[C@@H](O)CN1C(=O)[C@@H]1C[C@@H](O)CN1C(=O)[C@@H]1C[C@@H](O)CN1C(=O)[C@@H]1C[C@@H](O)CN1C(=O)CC[C@@H](NC(=O)[C@@H](CNC(=O)c1ccc([Si](F)(C(C)(C)C)C(C)(C)C)cc1)NC(=O)CN1CCN(CC(=O)O)CCN(CC(=O)O)CCN(CC(=O)O)CC1)C(=O)O)C(=O)O", "note": "[DOTA-rhCCK-84, DOTA-dap(SiFA)-γ-glu-(Hyp)6-γ-glu-(PEG)3-Trp-(N-Me)Nle-Asp-1-Nal-NH2] ({DOTA}-[dDap](Benzoyl(4-SiFtBu2))[d(γGlu)][Hyp][Hyp][Hyp][Hyp][Hyp][Hyp][d(γGlu)][PEG4]W[NMeNle]D[1Nal]-NH2)", "values": [
      {"measurement": "activity levels in stomach and tumor in competition studies (CCK-2R specificity)", "setting": "CCK-2R [1]", "value": "significantly decreased activity levels in both stomach and tumor"},
      {"measurement": "HSA binding [%]", "setting": "[2]", "value": 90.0, "unit": "%"},
      {"measurement": "logD7.4 (n ≥ 5), ^177Lu-labeled", "setting": "[3]", "value": "-2.14 ± 0.06"},
      {"measurement": "logD7.4 (n ≥ 5), ^177Lu-labeled", "setting": "[3]; listed as [^nat/177Lu]Lu-DOTA-rhCCK-84", "value": "-2.14 ± 0.06"},
      {"measurement": "IC50", "setting": "CCK-2R [4]; read-out: IC50 [nM] (n = 3), ^natGa-labeled, ^natGa-labeled", "value": "27.7 ± 3.1", "unit": "nM"},
      {"measurement": "IC50", "setting": "CCK-2R [4]; read-out: IC50 [nM] (n = 3), ^natLu-labeled, ^natLu-labeled", "value": "7.87 ± 0.3", "unit": "nM"},
      {"measurement": "in vivo stability in the serum (intact compound)", "setting": "[5]; murine serum", "value": "93.5 ± 2.1", "unit": "%"},
      {"measurement": "in vivo stability in the urine (intact compound)", "setting": "[5]; murine urine", "value": "55.4 ± 9.0", "unit": "%"}
    ]}
  ]
}
